US10941182 (Amgen, dated 2021)
Starred links: 1 amine or outer side, 2 acyl side, 3 side chain; linkers in the order of their positions; H or OH if unused. Non-standard residues stand in square brackets, D forms with d. *: point of attachment. dBip = N[C@H](Cc1ccc(-c2ccccc2)cc1)C(=O)O; Oic = O=C(O)[C@@H]1C[C@@H]2CCCC[C@@H]2N1; Phe(4-Cl) = N[C@@H](Cc1ccc(Cl)cc1)C(=O)O; dPhe(4-Cl) = N[C@H](Cc1ccc(Cl)cc1)C(=O)O; Phe(4-I) = N[C@@H](Cc1ccc(I)cc1)C(=O)O; γGlu = O=C(O)[C@H](CCC(=O)[*:2])N[*:1]; C12 diacid = O=C(O)CCCCCCCCCCC(=O)*; NMeR = CN[C@@H](CCCNC(=N)N)C(=O)O; hArg = N=C(N)NCCCC[C@H](N)C(=O)O; Cha = N[C@@H](CC1CCCCC1)C(=O)O; NMeL = CN[C@@H](CC(C)C)C(=O)O; Nle = CCCC[C@H](N)C(=O)O; AEEA = NCCOCCOCC(=O)O; Aib = CC(C)(N)C(=O)O; Mpa = O=C(O)CCS

B1: SEQ ID NO: 117 (peptide)
peptide: QRPRLSHKGPXPF
modifications: {H2}[MerPr](10K mPEG acetamide)QRP[hArg][aMeLeu]SHKGP[Nle]P[4-Cl-F]{COOH}
B2: SEQ ID NO: 67 (peptide)
peptide: Ac-RQRP[NMeR][NMeL]SHKGP[Nle]P[Phe(4-Cl)]-OH
SMILES: CCCC[C@H](NC(=O)[C@@H]1CCCN1C(=O)CNC(=O)[C@H](CCCCN)NC(=O)[C@H](Cc1c[nH]cn1)NC(=O)[C@H](CO)NC(=O)[C@H](CC(C)C)N(C)C(=O)[C@H](CCCNC(=N)N)N(C)C(=O)[C@@H]1CCCN1C(=O)[C@H](CCCNC(=N)N)NC(=O)[C@H](CCC(N)=O)NC(=O)[C@H](CCCNC(=N)N)NC(C)=O)C(=O)N1CCC[C@H]1C(=O)N[C@@H](Cc1ccc(Cl)cc1)C(=O)O
B3: SEQ ID NO: 112 (peptide)
peptide: QRPRLSHKGPXPF
modifications: {H2}[MerPr](10K mPEG acetamide)Q[hArg]P[NMeArg][aMeLeu]SHKGP[Nle]P[4-Cl-F]{COOH}
B4: SEQ ID NO: 64 (peptide)
peptide: Ac-RQRPR[NMeL]SHKGP[Nle]P[Phe(4-Cl)]-OH
SMILES: CCCC[C@H](NC(=O)[C@@H]1CCCN1C(=O)CNC(=O)[C@H](CCCCN)NC(=O)[C@H](Cc1c[nH]cn1)NC(=O)[C@H](CO)NC(=O)[C@H](CC(C)C)N(C)C(=O)[C@H](CCCNC(=N)N)NC(=O)[C@@H]1CCCN1C(=O)[C@H](CCCNC(=N)N)NC(=O)[C@H](CCC(N)=O)NC(=O)[C@H](CCCNC(=N)N)NC(C)=O)C(=O)N1CCC[C@H]1C(=O)N[C@@H](Cc1ccc(Cl)cc1)C(=O)O
B5: SEQ ID NO: 72 (peptide)
peptide: Ac-QR[NMeR]LSHKGP[Nle]P[Phe(4-Cl)]-OH
SMILES: CCCC[C@H](NC(=O)[C@@H]1CCCN1C(=O)CNC(=O)[C@H](CCCCN)NC(=O)[C@H](Cc1c[nH]cn1)NC(=O)[C@H](CO)NC(=O)[C@H](CC(C)C)NC(=O)[C@H](CCCNC(=N)N)N(C)C(=O)[C@H](CCCNC(=N)N)NC(=O)[C@H](CCC(N)=O)NC(C)=O)C(=O)N1CCC[C@H]1C(=O)N[C@@H](Cc1ccc(Cl)cc1)C(=O)O
B6: SEQ ID NO: 63 (peptide)
peptide: Ac-RQRPR[Cha]SHKGP[Nle]P[Phe(4-Cl)]-OH
SMILES: CCCC[C@H](NC(=O)[C@@H]1CCCN1C(=O)CNC(=O)[C@H](CCCCN)NC(=O)[C@H](Cc1c[nH]cn1)NC(=O)[C@H](CO)NC(=O)[C@H](CC1CCCCC1)NC(=O)[C@H](CCCNC(=N)N)NC(=O)[C@@H]1CCCN1C(=O)[C@H](CCCNC(=N)N)NC(=O)[C@H](CCC(N)=O)NC(=O)[C@H](CCCNC(=N)N)NC(C)=O)C(=O)N1CCC[C@H]1C(=O)N[C@@H](Cc1ccc(Cl)cc1)C(=O)O
B7: SEQ ID NO: 115 (peptide)
peptide: QRPRLSHKGPXPF
modifications: {H2}[MerPr](10K mPEG acetamide)QRP[NMeArg]LSHKGP[Nle]P[4-Cl-F]{COOH}
B8: SEQ ID NO: 93 (peptide)
peptide: QRPRXSHKGPXXF
modifications: {Acetyl-NH}qRP[NMeArg][Cha]SHKG[aMePro][Nle][Aib][4-Cl-F]{COOH}
B9: SEQ ID NO: 120 (peptide)
peptide: {10K mPEG acetamide}-[Mpa]QRP[NMeR][Cha]SHKG[Oic][Nle][Aib][Phe(4-Cl)]-OH
B10: SEQ ID NO: 591 (peptide)
peptide: XXXQRPRLSHKGPXPF
modifications: {Dodecanoyl-NH}[AC4Abu][Aeea][Aeea]QRP[NMeArg]LSHKGP[Nle]P[4-Cl-F]{COOH}
B11: SEQ ID NO: 119 (peptide)
peptide: QRPRLSHKGPXPF
modifications: {H2}[MerPr](10K mPEG acetamide)QrP[hArg][aMeLeu]SHKGP[Nle]P[4-Cl-F]{COOH}
B12: SEQ ID NO: 62 (peptide)
peptide: Ac-RQRPRLSHKGP[Nle]P[dBip]-OH
SMILES: CCCC[C@H](NC(=O)[C@@H]1CCCN1C(=O)CNC(=O)[C@H](CCCCN)NC(=O)[C@H](Cc1c[nH]cn1)NC(=O)[C@H](CO)NC(=O)[C@H](CC(C)C)NC(=O)[C@H](CCCNC(=N)N)NC(=O)[C@@H]1CCCN1C(=O)[C@H](CCCNC(=N)N)NC(=O)[C@H](CCC(N)=O)NC(=O)[C@H](CCCNC(=N)N)NC(C)=O)C(=O)N1CCC[C@H]1C(=O)N[C@H](Cc1ccc(-c2ccccc2)cc1)C(=O)O
B13: SEQ ID NO: 349 (peptide)
peptide: {C12 diacid}-[γGlu][AEEA][AEEA]Q[hArg]P[dR][NMeL]SHKG[Oic][Phe(4-I)]P[dBip]-OH
SMILES: CC(C)C[C@@H](C(=O)N[C@@H](CO)C(=O)N[C@@H](Cc1c[nH]cn1)C(=O)N[C@@H](CCCCN)C(=O)NCC(=O)N1[C@H](C(=O)N[C@@H](Cc2ccc(I)cc2)C(=O)N2CCC[C@H]2C(=O)N[C@H](Cc2ccc(-c3ccccc3)cc2)C(=O)O)C[C@@H]2CCCC[C@@H]21)N(C)C(=O)[C@@H](CCCNC(=N)N)NC(=O)[C@@H]1CCCN1C(=O)[C@H](CCCCNC(=N)N)NC(=O)[C@H](CCC(N)=O)NC(=O)COCCOCCNC(=O)COCCOCCNC(=O)CC[C@H](NC(=O)CCCCCCCCCCC(=O)O)C(=O)O
B14: SEQ ID NO: 111 (peptide)
peptide: {mPEG 10 kDa acetamide}-[Mpa][dQ][hArg]P[NMeR][Cha]SHKG[Oic][Nle]P[dPhe(4-Cl)]-OH
modifications: numbers in words are those of the source; also: N-terminus written {H2}
B15: SEQ ID NO: 65 (peptide)
peptide: Ac-RQRP[NMeR]LSHKGP[Nle]P[Phe(4-Cl)]-OH
SMILES: CCCC[C@H](NC(=O)[C@@H]1CCCN1C(=O)CNC(=O)[C@H](CCCCN)NC(=O)[C@H](Cc1c[nH]cn1)NC(=O)[C@H](CO)NC(=O)[C@H](CC(C)C)NC(=O)[C@H](CCCNC(=N)N)N(C)C(=O)[C@@H]1CCCN1C(=O)[C@H](CCCNC(=N)N)NC(=O)[C@H](CCC(N)=O)NC(=O)[C@H](CCCNC(=N)N)NC(C)=O)C(=O)N1CCC[C@H]1C(=O)N[C@@H](Cc1ccc(Cl)cc1)C(=O)O
B16: SEQ ID NO: 92 (peptide)
peptide: Ac-QRP[NMeR][Cha]SHKG[Oic][Nle][Aib][Phe(4-Cl)]-OH
B17: SEQ ID NO: 114 (peptide)
peptide: QRPRLSHKGPXPF
modifications: {H2}[MerPr](10K mPEG acetamide)QR[aMePro][hArg][aMeLeu]SHKGP[Nle]P[4-Cl-F]{COOH}
B18: SEQ ID NO: 113 (peptide)
peptide: QRPRLSHKGPXPF
modifications: {H2}[MerPr](10K mPEG acetamide)Q[hArg]P[NMehArg]LSHKGP[Nle]P[4-Cl-F]{COOH}
B19: SEQ ID NO: 116 (peptide)
peptide: QRPRLSHKGPXPF
modifications: {H2}[MerPr](10K mPEG acetamide)Q[NMehArg]P[NMeArg][aMeLeu]SHKGP[Nle]P[4-Cl-F]{COOH}
B20: SEQ ID NO: 90 (peptide)
peptide: RLIEDICLPRWGCLWEDDXXQRPRLSHKGPXPF
modifications: {Acetyl-NH}RLIEDICLPRWGCLWEDD[Aeea][Aeea]QRP[NMeArg]LSHKGP[Nle]P[4-Cl-F]{COOH}
B21: SEQ ID NO: 91 (peptide)
peptide: RLIEDICLPRWGCLWXXQRPRLSHKGPXPF
modifications: {Acetyl-NH}RLIEDICLPRWGCLW[Aeea][Aeea]QRP[NMeArg]LSHKGP[Nle]P[4-Cl-F]{COOH}
B22: SEQ ID NO: 94 (peptide)
peptide: SDFYKRLINKAKXXRRQRPRLSHKGXFPX
modifications: {Acetyl-NH}SDFYKRLINKAK[Aeea][Aeea][hArg]rQ[hArg]Pr[NMeLeu]SHKG[Oic][pI-Phe]P[D-Bip]{COOH}
B23: SEQ ID NO: 66 (peptide)
peptide: Ac-RQRP[NMeR][Cha]SHKGP[Nle]P[Phe(4-Cl)]-OH
SMILES: CCCC[C@H](NC(=O)[C@@H]1CCCN1C(=O)CNC(=O)[C@H](CCCCN)NC(=O)[C@H](Cc1c[nH]cn1)NC(=O)[C@H](CO)NC(=O)[C@H](CC1CCCCC1)NC(=O)[C@H](CCCNC(=N)N)N(C)C(=O)[C@@H]1CCCN1C(=O)[C@H](CCCNC(=N)N)NC(=O)[C@H](CCC(N)=O)NC(=O)[C@H](CCCNC(=N)N)NC(C)=O)C(=O)N1CCC[C@H]1C(=O)N[C@@H](Cc1ccc(Cl)cc1)C(=O)O

The binders below were run against T1, human APJ receptor (human, UniProt P35414 1-380) (assay: cell-based or functional assay).
T1 sequence (looked up): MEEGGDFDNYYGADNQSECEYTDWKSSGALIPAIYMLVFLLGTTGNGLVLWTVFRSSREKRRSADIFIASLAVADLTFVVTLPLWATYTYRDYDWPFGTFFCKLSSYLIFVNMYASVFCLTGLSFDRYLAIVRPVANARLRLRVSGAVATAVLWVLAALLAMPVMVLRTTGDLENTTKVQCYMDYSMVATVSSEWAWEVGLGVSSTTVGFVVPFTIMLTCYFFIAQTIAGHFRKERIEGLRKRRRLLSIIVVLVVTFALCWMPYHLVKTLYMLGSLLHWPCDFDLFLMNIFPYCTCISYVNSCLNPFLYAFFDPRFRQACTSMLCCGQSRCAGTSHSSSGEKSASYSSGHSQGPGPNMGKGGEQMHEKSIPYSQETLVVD

Binder | EC50 Human APJ Receptor [nM]
B1 | 19.7
B2 | 0.185
B3 | 2.32
B4 | 0.0555
B5 | 1.36
B6 | 0.036
B7 | 1.66
B8 | 0.229
B9 | 63.2
B10 | 0.476
B11 | 25.6
B12 | 0.303
B13 | 64
B14 | 1100
B15 | 0.0302
B16 | 0.679
B17 | 0.848
B18 | 12.1
B19 | 9.71
B20 | 0.14
B21 | 0.0357
B22 | 1.34
B23 | 0.0405

These binders were tested against T2, rat APJ receptor (rat, UniProt Q9JHG3 1-377) (assay: cell-based or functional assay).
T2 sequence (looked up): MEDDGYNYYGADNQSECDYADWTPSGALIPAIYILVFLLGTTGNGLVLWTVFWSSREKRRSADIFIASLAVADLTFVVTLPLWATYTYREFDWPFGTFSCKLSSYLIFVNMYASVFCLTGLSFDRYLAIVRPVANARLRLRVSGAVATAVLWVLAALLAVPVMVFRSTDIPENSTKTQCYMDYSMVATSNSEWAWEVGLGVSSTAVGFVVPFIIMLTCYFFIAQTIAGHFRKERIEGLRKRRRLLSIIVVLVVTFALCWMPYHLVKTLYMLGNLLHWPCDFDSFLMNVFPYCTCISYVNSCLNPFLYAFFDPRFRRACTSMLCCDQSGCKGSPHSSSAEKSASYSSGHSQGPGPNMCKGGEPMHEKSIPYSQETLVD

Binder | EC50 Rat APJ Receptor [nM]
B1 | 117
B2 | 1.4
B3 | 10.4
B4 | 0.411
B5 | 40.6
B6 | 0.164
B7 | 6.49
B8 | 0.79
B9 | 258
B10 | 1.84
B11 | 141
B12 | 3.43
B13 | 47.8
B14 | 777
B15 | 0.122
B16 | 3.23
B17 | 3.46
B18 | 49.3
B19 | 40.8
B20 | 0.633
B21 | 0.124
B22 | 1.33
B23 | 0.156
